The source of these data is doi:10.1101/2023.10.05.561114, “Conditional Requirement for Dimerization of the Membrane-Binding Module of BTK” (bioRxiv, 2023).

This series deals with the molecule itself. Put plainly: fluorescence correlation spectroscopy (FCS); protein adsorbed on supported lipid bilayers with 96% DOPC and 4% PIP3; two-dimensional diffusion rate measured against surface density; fit to a 2D diffusion model; imaging buffer HBSS with 0.01% w/v beta-casein, with scavenging mixture.

B1: BTK PH–TH module (residues 1–171), wild type, with C-terminal mNeonGreen (domain or fragment, human, UniProt Q06187 1-171, looked up)
chain: MAAVILESIFLKRSQQKKKTSPLNFKKRLFLLTVHKLSYYEYDFERGRRGSKKGSIDVEKITCVETVVPEKNPPPERQIPRRGEESSEMEQISIIERFPYPFQVVYDEGPLYVFSPTEELRKRWIHQLKNVIRYNSDLVQKYHPCFWIDGQYLCCSQTAKNAMGCQILENR
notes: Bruton's tyrosine kinase (BTK), human, pleckstrin-homology and tec-homology domains (PH–TH module), residues 1–171; ZnCl2 was added during expression; also called PH–TH^WT; source: E. coli BL21-DE3, purified (HisTrap, SUMO protease cleavage, second HisTrap, Superdex 75); not shown: His6, N-terminal, cleaved; SUMO, N-terminal, cleaved; mNeonGreen, C-terminal, kept
As for B1, the binding result was “binds”.
